According to US7459156 (University of California, dated 2008):

Experiments:
[1] = target: T1, low affinity nerve growth factor receptor (LNGFR) on PC12 cells (rat, UniProt P07174 30-425); experiment: equilibrium ^125I-NGF binding to PC12 cells, Scatchard/LIGAND; control IgG present; low affinity site
T1 construct: whole, on cells
T1 sequence (looked up): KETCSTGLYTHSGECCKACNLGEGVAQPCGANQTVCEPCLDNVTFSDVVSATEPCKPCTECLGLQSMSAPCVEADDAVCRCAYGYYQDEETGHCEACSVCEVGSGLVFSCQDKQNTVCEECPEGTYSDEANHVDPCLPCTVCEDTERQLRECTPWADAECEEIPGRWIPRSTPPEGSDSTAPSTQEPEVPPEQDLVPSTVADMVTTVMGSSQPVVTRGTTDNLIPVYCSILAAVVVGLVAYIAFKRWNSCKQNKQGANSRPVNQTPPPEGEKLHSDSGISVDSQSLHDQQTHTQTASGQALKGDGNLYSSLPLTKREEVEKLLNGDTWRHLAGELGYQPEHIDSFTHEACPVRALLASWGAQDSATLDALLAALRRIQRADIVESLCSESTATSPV
Method: (§1) Binding Assays. […] Nonspecific binding was determined by addition of […] unlabeled NGF, and ranged from 2-25% of specific binding. Determinations were made in triplicate. The equilibrium binding data from two experiments were combined for the Scatchard analysis (Scatchard, G., *Analys of NY Acad. Sciences* 5:660-672 (1949)), which was performed with the program LIGAND (Munson, P. J. and Rodbard, D., *Anal. Biochem.*, 107, 220-239 (1980)). The Scatchard data are plotted as fmoles bound per 10^5 cells (equivalent to a volume of 2×10^-4 liters).
(§2) To analyze the characteristics of the NGF binding sites remaining in the presence of the anti-LNGFR or -trkA antibodies, equilibrium binding assays were performed from 3.5 to 4000 pM NGF. The results are plotted by the Scatchard method in FIG. 2. As is now well known, PC12 cells have NGF binding sites with differing kinetic characteristics, leading to low and high affinity binding sites (Schechter and Bothwell, 1981). This is observed in the biphasic graph of NGF binding determined in the presence of control IgG (FIG. 2, open squares; the binding parameters are presented in Table 1).
(§3) FIG. 2 is an analysis of anti-LNGFR- and RtrkA.EX-resistant NGF binding sites. […] Nonspecific binding was determined as in FIG. 1A; values were determined in triplicate.

[2] = target: T1, low affinity nerve growth factor …; experiment: equilibrium ^125I-NGF binding to PC12 cells, Scatchard/LIGAND; 500 ug/ml RtrkA.EX IgG present; remaining low affinity site
Method: as §1, §2, §3

[3] = target: T2, rat trkA receptor (full length, 140 kD) (rat, UniProt P35739 33-799); experiment: equilibrium ^125I-NGF binding to PC12 cells, Scatchard/LIGAND; control IgG present; high affinity site
T2 construct: whole, on cells; also called p140trk; native trkA receptor protein
T2 sequence (P35739 33-799): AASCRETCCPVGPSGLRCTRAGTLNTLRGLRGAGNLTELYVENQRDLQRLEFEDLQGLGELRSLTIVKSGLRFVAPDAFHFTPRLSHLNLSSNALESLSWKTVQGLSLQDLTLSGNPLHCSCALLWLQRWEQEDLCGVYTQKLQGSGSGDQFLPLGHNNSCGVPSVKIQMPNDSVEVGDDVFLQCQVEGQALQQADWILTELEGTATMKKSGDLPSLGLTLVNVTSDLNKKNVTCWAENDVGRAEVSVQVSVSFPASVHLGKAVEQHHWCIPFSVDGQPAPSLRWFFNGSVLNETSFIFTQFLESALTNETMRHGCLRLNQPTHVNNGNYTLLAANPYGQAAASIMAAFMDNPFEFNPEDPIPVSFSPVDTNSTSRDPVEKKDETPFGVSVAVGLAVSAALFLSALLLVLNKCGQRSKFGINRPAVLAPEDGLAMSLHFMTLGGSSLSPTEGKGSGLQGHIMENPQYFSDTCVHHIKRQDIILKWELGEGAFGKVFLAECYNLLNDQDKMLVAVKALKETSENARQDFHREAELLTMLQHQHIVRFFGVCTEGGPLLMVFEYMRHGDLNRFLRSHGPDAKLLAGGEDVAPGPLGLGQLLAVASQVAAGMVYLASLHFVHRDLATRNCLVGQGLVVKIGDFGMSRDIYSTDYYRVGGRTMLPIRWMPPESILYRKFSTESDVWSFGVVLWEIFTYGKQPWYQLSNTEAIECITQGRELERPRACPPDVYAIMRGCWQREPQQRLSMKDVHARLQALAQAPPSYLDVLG
Method: as §1, §2, §3

[4] = target: T2, rat trkA receptor (full length, 140 kD); experiment: equilibrium ^125I-NGF binding to PC12 cells, Scatchard/LIGAND; 500 ug/ml anti-LNGFR IgG present; remaining high affinity site
Method: as §1, §2, §3

B1: nerve growth factor (NGF) (ligand, mouse, UniProt P01139 122-241, looked up)
chain: SSTHPVFHMGEFSVCDSVSVWVGDKTTATDIKGKEVTVLAEVNINNSVFRQYFFETKCRASNPVESGCRGIDSKHWNSYCTTTHTFVKALTTDEKQAAWRFIRIDTACVCVLSRKATRRG
modifications: 125I label on the NGF used in the binding assays
notes: mature; The species is stated only for the unlabelled NGF; the labelled NGF was bought
[1]
  Kd: 1.8 nM
[2]
  Kd: 1.1 nM
[3]
  Kd: 0.038 nM
[4]
  Kd: 0.092 nM
